Columns and labels:
PKR2 [1] = molecular target: T1, PKR2 (Homo sapiens, UniProt Q8NFJ6); experiment: Intracellular Ca2+ mobilization (FLIPR, Fluo-3) in PKR2 expressing HEK 293 cells; type: cell-based; design: The full-length cDNA coding regions for both PKR1 and PKR2 were PCR-amplified from human fetal brain cDNA; expressed in transfected cells; (transient, pCIneo)
Protocol: (§1) FIGS. 5A and 5B graphically illustrate that PKs stimulate Ca^2+ mobilization in HEK 293 cells expressing PKR1 or PKR2 at different potencies. HEK 293 cells transiently expressing PKR1 or PKR2 were seeded in 96-well plates, loaded with Ca^2+ dye Fluo-3 and then stimulated with different concentrations of PK1, PK2 or PK2β. The release of Ca^2+ was measured with a fluorescence imaging plate reader (FLIPR). The results are mean values (±S.E.M) of triplicate experiments. […] FIG. 5B provides the results for Ca^2+ mobilization in PKR2 expressing cells (legend: ▪, PK1; ▴, PK2; ▾, PK2β).
(§2) Intracellular Ca^2+ Mobilization Assays. PKR1 and PKR2 in the expression vector pCIneo (Promega) were transfected into HEK293 cells using LipofectAmine (Invitrogen). Two days after transfection, cells were detached using PBS containing 10 mM EDTA and seeded in poly-D-lysine coated 96-well black tissue culture plates (BD Biosciences).

PKR1 [2] = molecular target: T2, PKR1 (Homo sapiens, UniProt Q8TCW9); experiment: Intracellular Ca2+ mobilization (FLIPR, Fluo-3) in PKR1 expressing HEK 293 cells; type: cell-based; design: The full-length cDNA coding regions for both PKR1 and PKR2 were PCR-amplified from human fetal brain cDNA; expressed in transfected cells; (transient, pCIneo)
Protocol: as §1, §2

PKR2 [3] = molecular target: T1, PKR2; experiment: Radioligand competition binding assay (125I-PK2-f), PKR2 expressing COS-7 cells; design: The full-length cDNA coding regions for both PKR1 and PKR2 were PCR-amplified from human fetal brain cDNA; expressed in transfected cells; host or cells: COS-7 (transient, pCIneo); conditions: FIG. 4B
Protocol: (§3) FIGS. 4A and 4B graphically illustrate that PKs bind the PKR1 and PKR2 with different affinities. COS-7 cells transiently expressing PKR1 or PKR2 were seeded to 96-well plates. ^125I-labeled PK2-f was added to each well at a final concentration of 100 pM. Different concentrations of PK1, PK2 or PK2β were added to the assays as the competitors. All assays were performed in triplicates. The results are mean values (±S.E.M) of triplicates. FIG. 4A provides the results of the binding assay using PKR1 expressing cells.
(§4) Expression, purification, and iodination of C-terminal FLAG-tagged PK2. C-terminal FLAG-tagged PK2 (PK2-f) was constructed as described (Soga et al., 2002). Two primers P9: ATCGAGAATTCGCCACCATGAGGAGCCTGTGCTGCGCCC (SEQ.ID.NO.:11) and P10: GGATCCCTACTTATCGTCGTCATCCTTATAATCCTTTTGGGCTAAACA (SEQ.ID.NO.:12) were used to amplify human whole brain cDNA (Clontech). The PCR-amplified PK2-f was cloned into a mammalian expression vector pCMV-sport1 (Invitrogen). The resulting clones were sequenced to confirm the identities and transfected into COS-7 cells using LipofectAmine (Invitrogen). Three days after transfection, the cell culture supernatant was collected and run through an ANTI-FLAG M2 agarose (Sigma) affinity column. The column was washed with PBS and eluted with […] Glycine HCl, pH 3.0. The eluted protein fraction was immediately neutralized with 1 M Tris-HCl, pH 8.0 and then further purified by reverse-phase HPLC using a C4 column (Vydac). The purified recombinant PK2-f protein was iodinated using Iodogen reagent (Pierce, Rockford, Ill.) and ^125I-NaI (PerkinElmer, Boston, Mass.) as described by Pierce. The iodinated PK2-f was purified by a G-50 (Amersham Pharmacia Biotech) gel filtration column.
(§5) Radio-Ligand Binding Assays. PKR1 and PKR2 in the expression vector pCIneo (Promega) were transfected into COS-7 cells using LipofectAmine (Invitrogen). […] After the plates were washed three times with ice cold PBS, Microscint-40 (Packard, Meriden, Conn.) was added and the plates were counted on a Topcount (Packard).

PKR2 [4] = molecular target: T1, PKR2; experiment: cAMP accumulation (cAMP [125I] FlashPlate) in HEK 293 cells co-expressing PKR2/Gs; type: cell-based; design: The full-length cDNA coding regions for both PKR1 and PKR2 were PCR-amplified from human fetal brain cDNA; expressed in transfected cells; host or cells: HEK293 (transient, pCIneo, co-transfected with Gs plasmid); conditions: FIG. 8C
Protocol: FIGS. 8B and 8C illustrate results from HEK 293 cells co-expressing PKR1/Gs (FIG. 8B) or PKR2/Gs (FIG. 8C) stimulated with different PKs at various concentrations (the accumulated cAMP was measured by a cAMP [^125I] FlashPlate Assay kit; the results are mean values (±S.E.M) of triplicate experiments (legend: ▪, PK1; ▴, PK2; ▾, PK2β)).
In a different experiment, PKR1 and PKR2 in the expression vector pCIneo (Promega) were co-transfected with the Gs expression plasmid into HEK293 cells using LipofectAmine (Invitrogen). Two days after transfection, cells were detached with 10 mM EDTA in PBS, resuspended in Dulbecco's Modified Eagle's Medium/F12 (DMEM/F12) media, and then plated on 96-well plates at a density of 50,000 cells per well. Two hours after the seeding, cells culture medium was replaced with DMEM/F12 containing 2 mM isobutylmethylxanthine (Sigma) and incubated for 30 min. Different concentrations of PK1, PK2 or PK2β were added to cells and incubated for an additional 30 min in a final volume of 200 μl/well. The reaction was stopped and cAMP was extracted by adding 20 μl of 0.5 N HCl to each well. Cell culture media were tested for cAMP concentrations by the cAMP [^125I] FlashPlate Assay kit (PerkinElmer) as described by the manufacturer.

PKR1 [5] = molecular target: T2, PKR1; experiment: Radioligand competition binding assay (125I-PK2-f), PKR1 expressing COS-7 cells; design: The full-length cDNA coding regions for both PKR1 and PKR2 were PCR-amplified from human fetal brain cDNA; expressed in transfected cells; host or cells: COS-7 (transient, pCIneo); conditions: FIG. 4A
Protocol: as §3, §4, §5

T1 sequence (Q8NFJ6 whole entry): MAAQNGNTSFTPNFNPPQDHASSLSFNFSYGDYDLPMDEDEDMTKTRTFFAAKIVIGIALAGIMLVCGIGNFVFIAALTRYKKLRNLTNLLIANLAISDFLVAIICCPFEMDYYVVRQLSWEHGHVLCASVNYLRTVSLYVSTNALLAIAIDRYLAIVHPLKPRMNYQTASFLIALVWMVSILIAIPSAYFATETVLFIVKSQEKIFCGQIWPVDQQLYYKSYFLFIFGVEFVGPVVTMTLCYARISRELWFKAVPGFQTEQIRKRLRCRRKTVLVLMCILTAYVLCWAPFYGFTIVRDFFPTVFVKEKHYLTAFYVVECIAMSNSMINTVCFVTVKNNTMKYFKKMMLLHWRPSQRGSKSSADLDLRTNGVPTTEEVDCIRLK
T2 sequence (Q8TCW9 whole entry): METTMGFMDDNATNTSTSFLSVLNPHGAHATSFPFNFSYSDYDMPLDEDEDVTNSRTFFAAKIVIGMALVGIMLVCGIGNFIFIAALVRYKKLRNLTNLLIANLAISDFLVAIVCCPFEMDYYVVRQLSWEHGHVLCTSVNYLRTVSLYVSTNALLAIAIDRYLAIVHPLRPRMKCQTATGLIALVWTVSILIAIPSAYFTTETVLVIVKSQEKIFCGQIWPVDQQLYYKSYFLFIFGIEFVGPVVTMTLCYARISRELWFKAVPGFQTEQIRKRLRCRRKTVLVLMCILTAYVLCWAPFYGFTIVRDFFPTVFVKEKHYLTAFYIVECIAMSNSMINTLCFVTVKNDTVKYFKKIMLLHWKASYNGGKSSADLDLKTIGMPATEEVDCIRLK

Question: “AVITGACDKDSQCGGGMCCAVSIWVK SIRICTPMGKLGDSCHPLTRKNNFGNGRQE (AVITGACDKDSQCGGGMCCAVSIWVKSIRICTPMGKLGDSCHPLTRKNNFGNGRQE; listed as Homo sapiens) [PK2β, 56-amino acid mature peptide processed from PK2L pro-peptide by proteolytic (furin) cleavage; recombinant from COS-7 cells]” was tested. Which “Receptor selectivity in Ca2+ mobilization, in words” value (PKR2 [1]; PKR1 versus PKR2, FIGS. 5A, 5B) did it give?
Answer: only active at PKR1

Question: And the “Ca2+ response potency in PKR2-expressing cells, fold less potent than PK1 and PK2” value (PKR2 [1]; relative to PK1 and PK2)?
Answer: approximately 50 fold

Question: What about the “Agonist character at PKR1, in words” value (PKR1 [2]) of the same sequence?
Answer: potent full agonist

Question: And the “Binding to PKR2, in words” value (PKR2 [3])?
Answer: marginal active at high concentrations

Question: And the “cAMP accumulation in PKR2 expressing HEK293 cells, in words” value (PKR2 [4])?
Answer: marginal activity at high concentrations

Question: And the “Binding to PKR1, in words” value (PKR1 [5])?
Answer: high affinities
